Assay [1] has as its target T1, soluble human FcRn (human, UniProt P55899 24-297; P61769 21-119).
T1 construct: extracellular domain;mature; Non-covalent heterodimer secreted by 293 cells, purified on IgG Sepharose; also called shFcRn; soluble FcRn
As to the kind of experiment: SPR, shFcRn immobilised, pH 6.0. As for the experimental part:
(§1) Measurement of the binding ability of antibody by SPR was performed by immobilizing shFcRn as a ligand onto a Proteon GLC chip (Bio-Rad) and measuring affinity.
(§2) The analysis of ligand and analyte was performed using a Proteon GLC chip, and the interaction was analyzed at a pH of 6.0 and a pH of 7.4. Immobilization of the ligand was activated by injecting a 1:1 mixture of 1×EDAC (EDC) and 1× Surfo-NHS for 5 minutes. shFcRn was diluted in 10 mM sodium acetate (pH 4.5) at a concentration of 25 μg/ml and added to the ligand at a flow rate of 30 μl/min for 5 minutes. […] The analyte antibody was allowed to flow on the immobilized chip at a flow rate of 30 μl/min. […] The association time of the analyte antibody was 240 seconds, and the dissociation time was 600 seconds. Regeneration of the chip was performed by injecting 10 mM glycine (pH 2.5) at a flow rate of 100 μl/min for 18 seconds. Based on sensorgrams resulting from six concentrations of the analyte, kinetics analysis was performed using Proteon XPR36 software.
A general note: In SPR one partner is held on a chip, and binding of the other changes the refractive index at the surface.

Assay [2] addresses T1, soluble human FcRn. Put plainly: SPR, shFcRn immobilised, pH 7.4. As for the experimental part:
as §1, §2

The target of assay [3] is T2, human FcRn on HEK293 cells (human, UniProt P55899 24-365; P61769 21-119).
T2 construct: whole, on cells; also called hFcRn
T2 sequence (P55899 24-365, chain 1 of 2): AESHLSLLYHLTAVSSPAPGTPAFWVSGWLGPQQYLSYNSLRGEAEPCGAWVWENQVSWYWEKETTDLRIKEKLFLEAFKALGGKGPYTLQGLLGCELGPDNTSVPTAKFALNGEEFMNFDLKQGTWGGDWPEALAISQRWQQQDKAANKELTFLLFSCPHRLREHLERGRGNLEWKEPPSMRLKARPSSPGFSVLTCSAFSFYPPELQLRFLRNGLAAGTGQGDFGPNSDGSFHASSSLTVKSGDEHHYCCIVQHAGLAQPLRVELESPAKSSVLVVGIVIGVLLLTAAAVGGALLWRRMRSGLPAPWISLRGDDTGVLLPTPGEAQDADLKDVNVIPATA
T2 sequence (P61769 21-119, chain 2 of 2): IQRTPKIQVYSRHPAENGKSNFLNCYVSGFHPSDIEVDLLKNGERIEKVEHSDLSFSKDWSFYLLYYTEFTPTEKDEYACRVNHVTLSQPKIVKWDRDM
Put plainly: FACS on hFcRn-overexpressing HEK293 cells at pH 6.0, Alexa488 anti-human goat antibody; MFI relative to hIgG1. How it is done:
(§3) In stable HEK293 cells expressing human FcRn, the degrees of binding of antibody to FcRn at various pHs were analyzed using a FACS system. Specifically, 100,000 stable HEK293 cells were washed with PBS and centrifuged in a table top microcentrifuge at 4500 rpm for 5 minutes to obtain pellets. 1 μg of antibody was added to 100 μl of pH 6.0 or pH 7.4PBS/10 mM EDTA. The cell pellets were resuspended in 100 μl of the antibody solution and incubated on ice for 60 minutes. The cells were washed once with 150 μl of buffer having pH difference, and then pellets were obtained therefrom. Alexa488-labeled anti-human antibody goat antibody (1 mg/ml) was diluted at 1:20 in buffer having pH difference, and the pellets were resuspended in 100 μl of the buffer, and then cultured on ice for 60 minutes. The cells were washed once with 150 μl of buffer having pH difference, and pellets were obtained therefrom and resuspended in buffer having pH difference. The suspension was transferred into a tube for FACS analysis. These cells were analyzed by FACS using BD FACSDiva™ v6.1.3 software (BD Bioscience). The results of the analysis were expressed as Mean Fluorescence Intensity (MFI) (see FIG. 2).

Assay [4] deals with T2, human FcRn on HEK293 cells. As to the kind of experiment: FACS on hFcRn-overexpressing HEK293 cells at pH 7.4, Alexa488 anti-human goat antibody; MFI relative to hIgG1. As for the experimental part:
as §3

In assay [5] the target is T2, human FcRn on HEK293 cells. Put plainly: FACS competition on hFcRn HEK293 cells at pH 6.0; remaining binding of 100 nM Alexa488-labeled hIgG1 (m14) with 250 nM competitor antibody, percent of the tube without competitor. As for the experimental part:
(§4) In stable HEK293 cells expressing human FcRn, the blocking of the antibody against FcRn was analyzed by FACS. The antibody was diluted in binding buffer (PBS pH 6.0, 10 mM EDTA) at concentrations of 2,000 nM, […] to make 50 μl of dilutions, which were dispensed into tubes. […] Stable HEK293 cells were diluted in binding buffer at a concentration of 2,500,000 cells/ml, and 40 μl of the cell dilution was added to each of the labeled antibody-containing tubes. Thus, a final volume of 100 μl contained 100,000 cells, 100 nM labeled antibody and 1000 nM, 500 nM or 250 nM competitor antibody. The cells were washed once with 150 μl of buffer (pH 6.0), and pellets were obtained therefrom and resuspended in 150 μl of buffer having pH difference. The suspension was transferred into a tube for FACS analysis. The cells were analyzed by FACS using BD FACSDiva™ v6.1.3 software (BD Bioscience). The results of the analysis were expressed as mean fluorescence intensity (MFI).
(§5) The MFI of the test group was processed after subtracting the MFI (background signal) measured in cells alone.

Assay [6] has as its target T2, human FcRn on HEK293 cells. As to the kind of experiment: FACS competition on hFcRn HEK293 cells at pH 6.0; remaining binding of 100 nM Alexa488-labeled hIgG1 (m14) with 500 nM competitor antibody, percent of the tube without competitor. How it is done: as §4, §5
The target of assay [7] is T2, human FcRn on HEK293 cells. Put plainly: FACS competition on hFcRn HEK293 cells at pH 6.0; remaining binding of 100 nM Alexa488-labeled hIgG1 (m14) with 1000 nM competitor antibody, percent of the tube without competitor. As for the experimental part:
as §4, §5

The target in assay [8] is T3, rat FcRn on Rat-2 cells (rat, UniProt P13599 23-366; P07151 21-119).
T3 construct: whole, on cells
T3 sequence (looked up): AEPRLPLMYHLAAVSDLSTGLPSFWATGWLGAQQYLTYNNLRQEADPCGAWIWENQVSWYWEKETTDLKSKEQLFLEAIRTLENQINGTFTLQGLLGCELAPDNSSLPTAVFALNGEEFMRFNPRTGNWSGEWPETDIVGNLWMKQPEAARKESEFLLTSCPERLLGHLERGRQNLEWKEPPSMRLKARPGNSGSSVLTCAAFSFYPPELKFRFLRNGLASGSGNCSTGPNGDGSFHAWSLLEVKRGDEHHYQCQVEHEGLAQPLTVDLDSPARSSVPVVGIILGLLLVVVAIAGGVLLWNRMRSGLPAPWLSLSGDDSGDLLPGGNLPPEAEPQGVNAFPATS
T3 sequence (b2m, looked up): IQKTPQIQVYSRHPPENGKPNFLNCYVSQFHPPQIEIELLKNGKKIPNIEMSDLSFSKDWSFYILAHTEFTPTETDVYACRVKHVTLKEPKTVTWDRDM
As to the kind of experiment: FACS on rat FcRn-expressing Rat-2 cells at pH 6.0 and pH 7.4, FITC anti-human IgG goat antibody; MFI relative to hIgG. How it is done: Rat-2 (KCTC #AC28203), rat fibroblasts stably expressing rat FcRn, were cultured in 10% FBS DMEM medium, and then detached from the culture plate by trypsin treatment. The cells were washed three times with cold binding buffer (PBS pH 6.0, 10 mM EDTA), and then diluted in binding buffer at a concentration of 10⁵ cells/ml. 100 μl of the cell dilution was dispensed into each 1.5-ml tube in such a manner that each tube contained 10⁴ cells, and 1 μl of HL161 antibody (1 mg/ml) was added to the dispensed cells. Next, the cells were incubated on ice. As control antibodies, 1 μl of each of mouse 1G3 antibody and human IgG antibody (Abcam, cat#. 409120), which bind to rat FcRn, was used. The 1G3 antibody was produced and purified from mouse hybridoma cells (ATCC CRL2434). The cells were recovered by centrifugation at 4° C. and 4000 rpm for 5 minutes, after which the cells were washed once with binding buffer and resuspended in 100 μl of binding buffer. As FITC-conjugated secondary antibody, 1 μl of anti-human IgG goat antibody (Invitrogen, cat#. A11013) was added to the cells. In the case of the experiment using anti-rat FcRn mouse antibody, the anti-mouse IgG goat antibody (Invitrogen, cat#. A11001) was incubated with the cells on ice for 1 hour, and then the cells were recovered by centrifugation at 4° C. and 4000 rpm for 5 minutes, washed once with binding buffer, resuspended in 400 μl of binding buffer and analyzed by FACS to examine the cross-reactivity of the HL161 antibodies with rat FcRn (see FIG. 4). An experiment at a pH of 7.4 was performed using binding buffer at a pH of 7.4 in the same manner as the experiment using binding buffer at a pH of 6.0. The degree of the binding of each antibody to rat FcRn was presented as relative MFI based on human IgG.

Assay [9] has as its target T4, mouse FcRn on 3T3-L1 cells (mouse, UniProt Q61559 22-365; P01887 21-119).
T4 construct: whole, on cells; also called NIH3T3L1
T4 sequence (looked up): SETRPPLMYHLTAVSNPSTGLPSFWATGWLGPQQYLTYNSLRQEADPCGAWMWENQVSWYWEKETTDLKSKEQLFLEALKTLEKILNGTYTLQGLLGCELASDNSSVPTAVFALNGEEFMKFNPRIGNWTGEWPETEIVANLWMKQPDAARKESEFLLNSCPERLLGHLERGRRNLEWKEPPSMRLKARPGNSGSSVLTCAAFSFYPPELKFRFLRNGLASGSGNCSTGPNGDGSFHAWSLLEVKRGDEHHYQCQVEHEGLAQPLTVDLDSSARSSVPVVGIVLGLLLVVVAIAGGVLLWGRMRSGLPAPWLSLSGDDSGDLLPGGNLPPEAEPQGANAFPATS
T4 sequence (b2m, looked up): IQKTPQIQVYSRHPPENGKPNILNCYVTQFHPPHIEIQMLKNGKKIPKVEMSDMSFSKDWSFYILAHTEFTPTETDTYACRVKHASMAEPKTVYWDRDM
As to the kind of experiment: FACS on mouse FcRn-expressing 3T3-L1 cells at pH 6.0 and pH 7.4, FITC anti-human IgG goat antibody; MFI relative to hIgG. How it is done:
3T3-L1 cells stably expressing mouse FcRn were cultured in 10% FCS DMEM medium, and then detached from the culture plate by trypsin treatment. The cells were washed three times with cold binding buffer (PBS, pH 6.0 10 mM EDTA), and then diluted in binding buffer at a concentration of 10⁵ cells/ml. 100 μl of the cell dilution was dispensed into each 1.5-ml tube in such a manner that each tube contained 10⁴ cells, and 1 μl of HL161 antibody (1 mg/ml) was added to the dispensed cells. Next, the cells were incubated on ice. As control antibodies, 1 μl of each of rabbit antibody (Santacruz, sc-66893) and human IgG (Abcam, cat#. 409120), which bind to mouse FcRn, was used. The cells were recovered by centrifugation at 4° C. and 4000 rpm for 5 minutes, after which the cells were washed once with binding buffer and resuspended in 100 μl of binding buffer. As FITC-conjugated secondary antibody, 1 μl of anti-human IgG goat antibody (Invitrogen, Cat*. A11013) was added to the cells. In the case of the experiment using anti-mouse FcRn rabbit antibody, the anti-rabbit antibody was incubated with the cells on ice for 1 hour, and then the cells were recovered by centrifugation at 4° C. and 700 g for 5 minutes, washed once with binding buffer, resuspended in 400 ul of binding buffer and analyzed by FACS to examine the cross-reactivity of the HL161 antibodies with mouse FcRn (see FIG. 4). An experiment at a pH of 7.4 was performed using binding buffer at a pH of 7.4 in the same manner as the experiment using binding buffer at a pH of 6.0. The degree of the binding of each antibody to mouse FcRn was presented as relative MFI based on human IgG.

Three molecules from patent US20160137713A1 (HANALL BIOPHARMA, published 2016) can be followed below.

T1 sequence (P55899 24-297, chain 1 of 2): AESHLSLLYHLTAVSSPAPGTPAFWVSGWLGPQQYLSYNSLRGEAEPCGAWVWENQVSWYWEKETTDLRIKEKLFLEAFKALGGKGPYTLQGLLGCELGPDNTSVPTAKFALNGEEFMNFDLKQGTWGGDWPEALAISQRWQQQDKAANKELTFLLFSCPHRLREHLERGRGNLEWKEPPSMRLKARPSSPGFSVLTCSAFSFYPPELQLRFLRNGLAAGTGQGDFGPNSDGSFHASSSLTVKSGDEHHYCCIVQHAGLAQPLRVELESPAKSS
T1 sequence (P61769 21-119, chain 2 of 2): as the sequence (P61769 21-119, chain 2 of 2) above

B1: HL161-6C (antibody, V domains shown)
VH: QVQLVESGAEVKKPGASVKVSCKASGYTFTSYYMHWVRQAPGQGLEWMGIINPSGGSTSYAQKFQGRVTMTRDTSTSTVYMELSSLRSEDTAVYYCARGGGAFDIWGQGTMVTVSS
VL: DIQMTQSPSSVSASVGDRVTITCRASQGISNWVAWYQQKPGKAPKLLIYAASSLQSGVPSRFSGSGSGTDFTLTISSLQPEDFAIYYCQQGHSFPYTFGQGTKVEIK
notes: Whole human IgG from pNATAB vectors
As usually defined, the koff is the first-order rate constant of dissociation. One may read the kon as the second-order rate constant of association. Low readings indicate slower complex formation, high ones faster complex formation. For B1, the koff stood at 0.0019 s⁻¹ in assay [1] and 0.0031 s⁻¹ in [2]. Moreover, the kon in assay [1] was determined as 1e+06 M⁻¹ s⁻¹; in assay [2], 470000 M⁻¹ s⁻¹. In addition, the results for the “Relative MFI (Fold)” value in [3] and in assay [4] were 0.9 fold and 1.3 fold, respectively. Also, in [5], the “Relative MFI(%) at 250nM” value is 88.2%. Besides, the “Relative MFI(%) at 500nM” value in [6] was 84.7%. Besides, the “Relative MFI(%) at 1000nM” value in assay [7] came out at 81.1%.

B2: HL161-1A (antibody, V domains shown)
VH: QVQLVQSGGGLVQPGRSLRLSCAASGFSFGEYGMHWVRQAPGKGLEWVSGVSWNSGSIAYADSVRGRFTISRDNSKNSLYLQMNSLRAEDTAVYYCARGRSMDVWGQGTTVTVSS
VL: NFMLTQPASVSGSPGQTITISCTGSSSDVGGYNYVSWYQQHPGKAPQLIIYDVTKRPSGVSNRFSGSKSGNSASLTISGLQAEDEADYYCSSYSSSTFYVFGTGTKVTVL
notes: as for B1
With B2, the binding result in assay [8] and in assay [9] was “binds” throughout.

B3: HL161-11G (antibody, V domains shown)
VH: QMQLVESGGGVVQPGRSLRLSCVGSGFNFNSYGIHWVRQAPGKGLEWVGGIFYDGSQVKYADSVKGRVSISRDNSKNTAYLQMNSLRAEDTAVYYCARRNLLDYWGQGTVVTVSS
VL: NFMLTQPASVSGSPGQSITISCTGSSSDVGGYNYVSWYQQHPGKAPQLIIYDVTKRPSGVSNRFSGSKSGNSASLTISGLQAEDEADYYCSSYSSSTFYVFGTGTKVTVL
notes: Whole human IgG from pNATAB vectors; also called h1161-11G
Turning to B3, the binding result in assay [8] and in assay [9] was “binds” each time.
